Results: paper doi:10.1101/2023.04.12.536585 (2023)

Legend:
[1] = target: p110γ-p84 complex (human p110γ, mouse p84) (human | mouse, UniProt P48736 1-1102; Q3U6Q4 1-756); assay: BLI
[2] = target: p110γ-p101 complex (human p110γ, porcine p101) (human | porcine (Sus scrofa), UniProt P48736 1-1102; O02696 1-877); assay: BLI
Sequence of p110γ-p101 complex (human p110γ, porcine p101) (P48736 whole entry, chain 1 of 2): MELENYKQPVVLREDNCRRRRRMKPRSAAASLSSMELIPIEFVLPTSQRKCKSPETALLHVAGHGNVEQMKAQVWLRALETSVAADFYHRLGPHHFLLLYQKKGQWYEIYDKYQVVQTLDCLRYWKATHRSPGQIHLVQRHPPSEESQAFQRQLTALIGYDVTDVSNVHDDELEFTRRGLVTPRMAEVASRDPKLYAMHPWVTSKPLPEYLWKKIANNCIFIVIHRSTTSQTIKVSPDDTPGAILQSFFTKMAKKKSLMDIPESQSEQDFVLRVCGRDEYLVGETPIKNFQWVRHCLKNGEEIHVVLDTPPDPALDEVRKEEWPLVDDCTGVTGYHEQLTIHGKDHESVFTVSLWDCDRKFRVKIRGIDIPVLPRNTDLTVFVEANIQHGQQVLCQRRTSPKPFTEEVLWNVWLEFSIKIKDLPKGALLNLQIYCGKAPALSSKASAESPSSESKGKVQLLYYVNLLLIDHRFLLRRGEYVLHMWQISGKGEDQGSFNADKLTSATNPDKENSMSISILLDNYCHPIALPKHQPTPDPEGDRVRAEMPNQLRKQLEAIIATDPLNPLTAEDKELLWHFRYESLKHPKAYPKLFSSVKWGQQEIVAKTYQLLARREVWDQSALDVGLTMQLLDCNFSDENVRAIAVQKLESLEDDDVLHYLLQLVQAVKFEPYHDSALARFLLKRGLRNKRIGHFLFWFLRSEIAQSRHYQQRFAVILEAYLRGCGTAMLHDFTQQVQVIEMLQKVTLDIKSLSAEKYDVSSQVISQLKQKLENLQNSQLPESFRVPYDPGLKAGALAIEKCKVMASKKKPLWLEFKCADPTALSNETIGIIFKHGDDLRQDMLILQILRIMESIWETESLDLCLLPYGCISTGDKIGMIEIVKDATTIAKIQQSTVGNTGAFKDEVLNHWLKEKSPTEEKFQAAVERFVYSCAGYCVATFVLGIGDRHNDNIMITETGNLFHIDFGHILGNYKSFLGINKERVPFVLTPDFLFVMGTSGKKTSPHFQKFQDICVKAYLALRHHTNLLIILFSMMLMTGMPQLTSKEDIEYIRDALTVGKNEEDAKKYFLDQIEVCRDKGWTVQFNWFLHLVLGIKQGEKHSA
Sequence of p110γ-p101 complex (human p110γ, porcine p101) (O02696 whole entry, chain 2 of 2): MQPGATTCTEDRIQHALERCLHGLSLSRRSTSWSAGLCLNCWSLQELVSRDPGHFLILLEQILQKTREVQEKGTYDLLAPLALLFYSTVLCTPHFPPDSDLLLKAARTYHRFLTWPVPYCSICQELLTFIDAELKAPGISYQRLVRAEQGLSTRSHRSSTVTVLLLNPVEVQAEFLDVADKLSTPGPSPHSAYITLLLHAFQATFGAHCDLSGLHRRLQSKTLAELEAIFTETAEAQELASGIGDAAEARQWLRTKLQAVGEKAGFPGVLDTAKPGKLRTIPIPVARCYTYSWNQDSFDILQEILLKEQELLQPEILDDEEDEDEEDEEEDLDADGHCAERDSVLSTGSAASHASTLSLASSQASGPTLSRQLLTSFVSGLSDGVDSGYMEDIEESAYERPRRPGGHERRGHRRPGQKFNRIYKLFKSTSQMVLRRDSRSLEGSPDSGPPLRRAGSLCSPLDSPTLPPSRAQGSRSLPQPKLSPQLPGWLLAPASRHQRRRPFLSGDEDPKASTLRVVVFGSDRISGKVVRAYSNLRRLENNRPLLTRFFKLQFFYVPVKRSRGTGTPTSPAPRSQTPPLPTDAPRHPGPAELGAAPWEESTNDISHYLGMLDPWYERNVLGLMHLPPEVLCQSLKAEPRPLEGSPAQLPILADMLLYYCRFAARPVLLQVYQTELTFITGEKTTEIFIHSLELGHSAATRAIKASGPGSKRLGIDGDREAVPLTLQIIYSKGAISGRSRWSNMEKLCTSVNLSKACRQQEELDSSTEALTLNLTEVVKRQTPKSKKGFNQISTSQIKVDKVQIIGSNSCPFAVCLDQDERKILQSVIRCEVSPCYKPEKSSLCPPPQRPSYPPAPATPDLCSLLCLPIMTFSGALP

Sequence of p110γ-p84 complex (human p110γ, mouse p84) (P48736 whole entry, chain 1 of 2): as the sequence (P48736 whole entry, chain 1 of 2) above
Sequence of p110γ-p84 complex (human p110γ, mouse p84) (Q3U6Q4 whole entry, chain 2 of 2): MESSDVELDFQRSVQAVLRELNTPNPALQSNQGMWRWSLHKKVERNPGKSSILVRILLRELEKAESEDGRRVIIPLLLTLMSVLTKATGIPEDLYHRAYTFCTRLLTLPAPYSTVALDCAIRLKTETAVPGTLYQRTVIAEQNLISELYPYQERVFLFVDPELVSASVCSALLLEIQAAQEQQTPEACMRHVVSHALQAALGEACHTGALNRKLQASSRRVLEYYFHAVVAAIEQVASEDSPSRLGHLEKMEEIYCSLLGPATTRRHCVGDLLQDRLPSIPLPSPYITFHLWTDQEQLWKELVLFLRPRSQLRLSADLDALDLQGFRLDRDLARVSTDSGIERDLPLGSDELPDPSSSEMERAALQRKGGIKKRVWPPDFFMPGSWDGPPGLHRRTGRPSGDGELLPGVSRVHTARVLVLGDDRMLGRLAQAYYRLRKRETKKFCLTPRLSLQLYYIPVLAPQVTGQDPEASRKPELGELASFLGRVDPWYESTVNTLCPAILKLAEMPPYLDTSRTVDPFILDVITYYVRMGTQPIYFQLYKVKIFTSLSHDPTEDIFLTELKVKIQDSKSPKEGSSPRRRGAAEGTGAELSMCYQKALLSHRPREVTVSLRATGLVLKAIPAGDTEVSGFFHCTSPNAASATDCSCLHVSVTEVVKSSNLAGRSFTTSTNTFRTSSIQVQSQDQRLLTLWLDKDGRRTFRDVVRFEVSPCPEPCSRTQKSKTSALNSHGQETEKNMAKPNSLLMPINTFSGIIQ

- Kd [1]: 3 nM
- Kd [2]: 3.1 nM
B1: Nanobody NB7-PIK3CG (VHH)
VHH: QVQLVESGGGLVQPGGSLRLSCAASGSIFSINAMGWYRQAPGKQRELVAHITSGGSTNYADSVKGRFTISRDNAKNTVYLQMNSLKPEDTAVYYCNEAGDPFLGSTWNGPPAFGSWGQGTQVTVSS
